Assay [1] has as its target T1, HCoV-NL63 trimeric S protein (amino acids 22-1293) with T4 foldon, histidine tag and strep-tag (HCoV-NL63, UniProt Q6Q1S2 23-1293).
T1 sequence: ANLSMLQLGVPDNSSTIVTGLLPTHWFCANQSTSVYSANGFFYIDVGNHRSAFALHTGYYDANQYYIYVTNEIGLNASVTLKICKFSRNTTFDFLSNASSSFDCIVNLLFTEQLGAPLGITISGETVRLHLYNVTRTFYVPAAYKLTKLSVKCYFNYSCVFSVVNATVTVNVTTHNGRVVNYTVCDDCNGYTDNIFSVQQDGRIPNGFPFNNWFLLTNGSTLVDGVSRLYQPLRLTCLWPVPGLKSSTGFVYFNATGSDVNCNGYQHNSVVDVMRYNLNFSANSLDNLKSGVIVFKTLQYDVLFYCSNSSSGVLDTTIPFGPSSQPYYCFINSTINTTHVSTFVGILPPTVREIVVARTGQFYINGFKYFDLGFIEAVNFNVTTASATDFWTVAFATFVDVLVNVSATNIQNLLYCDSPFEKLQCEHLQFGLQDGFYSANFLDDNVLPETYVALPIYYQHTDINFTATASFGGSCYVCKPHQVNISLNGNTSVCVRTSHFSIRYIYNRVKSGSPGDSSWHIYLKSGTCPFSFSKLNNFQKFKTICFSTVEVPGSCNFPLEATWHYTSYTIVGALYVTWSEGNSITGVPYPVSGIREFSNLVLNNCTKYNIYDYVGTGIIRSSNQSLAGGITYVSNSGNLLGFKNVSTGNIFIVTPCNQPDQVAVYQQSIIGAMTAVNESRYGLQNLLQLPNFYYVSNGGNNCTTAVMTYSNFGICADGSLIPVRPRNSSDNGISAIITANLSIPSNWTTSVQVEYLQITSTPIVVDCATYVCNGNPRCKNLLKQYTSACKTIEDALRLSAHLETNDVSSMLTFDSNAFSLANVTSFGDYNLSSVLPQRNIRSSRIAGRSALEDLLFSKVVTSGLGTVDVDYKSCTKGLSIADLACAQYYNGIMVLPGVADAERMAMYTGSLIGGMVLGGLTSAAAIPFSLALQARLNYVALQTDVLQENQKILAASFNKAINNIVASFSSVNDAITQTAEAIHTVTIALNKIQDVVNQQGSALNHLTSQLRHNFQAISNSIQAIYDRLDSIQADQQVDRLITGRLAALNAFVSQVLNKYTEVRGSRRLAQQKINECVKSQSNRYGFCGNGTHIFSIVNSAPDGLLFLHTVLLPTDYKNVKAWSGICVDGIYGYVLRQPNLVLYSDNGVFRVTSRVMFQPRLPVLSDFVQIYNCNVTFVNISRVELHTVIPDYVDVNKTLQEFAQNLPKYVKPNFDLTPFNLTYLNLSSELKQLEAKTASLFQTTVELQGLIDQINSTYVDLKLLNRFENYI
As to the kind of experiment: ELISA on coated S-trimeric antigen, anti-human IgG-HRP [Human IgG1, NT-108].

Assay [2] concerns the target T2, HCoV-HKU1 trimeric S protein (amino acids 13-1293) with T4 foldon, histidine tag and strep-tag (HCoV-HKU1, UniProt Q5MQD0 13-1297).
T2 sequence: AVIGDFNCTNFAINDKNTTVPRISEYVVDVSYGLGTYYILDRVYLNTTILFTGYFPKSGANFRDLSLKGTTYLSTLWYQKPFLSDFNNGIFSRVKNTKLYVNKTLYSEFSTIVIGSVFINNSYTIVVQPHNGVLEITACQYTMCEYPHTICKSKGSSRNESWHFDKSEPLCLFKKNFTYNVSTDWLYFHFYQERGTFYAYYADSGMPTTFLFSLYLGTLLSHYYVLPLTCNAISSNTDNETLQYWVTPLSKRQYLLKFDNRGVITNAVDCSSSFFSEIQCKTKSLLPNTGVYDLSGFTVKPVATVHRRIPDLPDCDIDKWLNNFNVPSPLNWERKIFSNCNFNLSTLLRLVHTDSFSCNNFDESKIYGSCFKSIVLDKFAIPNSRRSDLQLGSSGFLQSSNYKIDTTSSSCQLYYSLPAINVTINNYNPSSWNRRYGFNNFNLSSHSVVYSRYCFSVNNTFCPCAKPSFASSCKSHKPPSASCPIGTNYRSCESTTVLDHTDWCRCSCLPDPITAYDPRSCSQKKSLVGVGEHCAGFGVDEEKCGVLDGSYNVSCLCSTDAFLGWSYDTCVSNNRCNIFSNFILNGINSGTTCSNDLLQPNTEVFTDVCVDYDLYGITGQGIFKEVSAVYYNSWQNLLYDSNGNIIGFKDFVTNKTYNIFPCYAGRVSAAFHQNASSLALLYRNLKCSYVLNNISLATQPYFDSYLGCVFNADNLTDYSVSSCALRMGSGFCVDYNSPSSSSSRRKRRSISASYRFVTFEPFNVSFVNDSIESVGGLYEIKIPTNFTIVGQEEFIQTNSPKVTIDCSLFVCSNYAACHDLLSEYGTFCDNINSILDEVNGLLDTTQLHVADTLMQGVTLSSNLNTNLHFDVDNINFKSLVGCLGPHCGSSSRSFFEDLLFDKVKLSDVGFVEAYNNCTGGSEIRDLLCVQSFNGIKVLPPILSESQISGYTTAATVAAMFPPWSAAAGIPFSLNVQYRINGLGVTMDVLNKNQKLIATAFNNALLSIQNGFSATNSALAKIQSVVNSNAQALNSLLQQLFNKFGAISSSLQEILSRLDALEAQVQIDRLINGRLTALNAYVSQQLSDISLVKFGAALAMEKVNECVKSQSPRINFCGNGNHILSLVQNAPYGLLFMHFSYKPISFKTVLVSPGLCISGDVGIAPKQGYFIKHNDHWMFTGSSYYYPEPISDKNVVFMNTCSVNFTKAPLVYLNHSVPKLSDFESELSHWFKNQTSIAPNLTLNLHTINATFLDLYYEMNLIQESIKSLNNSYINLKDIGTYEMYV
Described as above.

B1: NT-108 (recombinant human IgG1/kappa antibody) (antibody, V domains shown)
VH: EVQLQQSGPGLVKPSQTLSLTCSISGDSVSSNSAAWNWIRQSPSRGLEWLGRTYYRSKWYNDYAGTVKSRIAINPDTSKNQFSLHLNSVTPEDTAVYFCARVISVAGYAFDIWGQGTMVTVSS
VL: EIVLTQSPGTLSLSPGERATLSCRASQSVSSTFLAWYQQKPGQAPRLLIYGASYMATGIPDRFSGSGSGTDFTLTISRLEPEDFAVYYCQQYGSSLTFGGGTKLEIK
For the molecule B1, the binding result in assay [1] and in assay [2] was “no binding (tested: 1000 ng/ml)” in each case.

The values are drawn from US20240287161A1 (NATIONAL UNIVERSITY CORPORATION TOTTORI UNIVERSITY, published 2024).
